Laboratory results as given in patent US20190119389A1 (POTENZA THERAPEUTICS, published 2019).

T1: monomeric mutant NRP1 b1 K351N (human, UniProt O14786 273-427, limits assumed)
T1 construct: Single point mutant of the human NRP1 b1 domain
T1 chain: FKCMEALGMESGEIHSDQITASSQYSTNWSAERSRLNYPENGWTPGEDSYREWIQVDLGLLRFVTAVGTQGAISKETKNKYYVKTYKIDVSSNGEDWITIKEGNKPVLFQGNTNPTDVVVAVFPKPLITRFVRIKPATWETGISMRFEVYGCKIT

T2: monomeric mutant NRP1 b1 Y354A (human, UniProt O14786 273-427, limits assumed)
T2 construct: Single point mutant of the human NRP1 b1 domain
T2 chain: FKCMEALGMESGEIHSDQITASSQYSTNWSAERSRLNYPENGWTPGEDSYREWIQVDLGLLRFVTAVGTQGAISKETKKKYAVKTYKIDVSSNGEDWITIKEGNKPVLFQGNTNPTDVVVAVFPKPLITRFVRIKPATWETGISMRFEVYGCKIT

T3: monomeric mutant NRP1 b1 D320A (human, UniProt O14786 273-427, limits assumed)
T3 construct: Single point mutant of the human NRP1 b1 domain
T3 chain: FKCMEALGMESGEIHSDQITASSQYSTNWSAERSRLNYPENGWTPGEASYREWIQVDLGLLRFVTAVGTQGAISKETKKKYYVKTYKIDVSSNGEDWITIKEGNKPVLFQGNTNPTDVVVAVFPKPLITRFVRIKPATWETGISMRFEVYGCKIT

T4: monomeric mutant NRP1 b1 P317A (human, UniProt O14786 273-427, limits assumed)
T4 construct: Single point mutant of the human NRP1 b1 domain
T4 chain: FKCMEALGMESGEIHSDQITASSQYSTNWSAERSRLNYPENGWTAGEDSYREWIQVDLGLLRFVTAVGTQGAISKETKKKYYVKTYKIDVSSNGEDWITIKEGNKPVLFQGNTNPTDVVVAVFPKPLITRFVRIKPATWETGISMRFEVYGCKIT

T5: monomeric mutant NRP1 b1 K352G (human, UniProt O14786 273-427, limits assumed)
T5 construct: Single point mutant of the human NRP1 b1 domain
T5 chain: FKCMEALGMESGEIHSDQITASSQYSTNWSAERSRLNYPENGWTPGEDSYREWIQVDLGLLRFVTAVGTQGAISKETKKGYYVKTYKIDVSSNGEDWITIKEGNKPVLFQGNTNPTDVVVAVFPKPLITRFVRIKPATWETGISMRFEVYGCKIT

T6: monomeric mutant NRP1 b1 T349A (human, UniProt O14786 273-427, limits assumed)
T6 construct: Single point mutant of the human NRP1 b1 domain
T6 chain: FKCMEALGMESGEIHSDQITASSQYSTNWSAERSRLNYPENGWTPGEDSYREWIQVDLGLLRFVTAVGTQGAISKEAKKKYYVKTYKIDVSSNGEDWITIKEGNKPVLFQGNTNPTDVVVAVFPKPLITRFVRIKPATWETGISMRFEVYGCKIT

T7: monomeric mutant NRP1 b1 Y353A (human, UniProt O14786 273-427, limits assumed)
T7 construct: Single point mutant of the human NRP1 b1 domain
T7 chain: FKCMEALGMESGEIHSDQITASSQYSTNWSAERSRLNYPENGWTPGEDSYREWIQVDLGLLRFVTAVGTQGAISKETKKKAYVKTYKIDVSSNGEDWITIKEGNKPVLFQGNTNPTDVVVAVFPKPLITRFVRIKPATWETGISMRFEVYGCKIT

T8: monomeric mutant NRP1 b1 T413A (human, UniProt O14786 273-427)
T8 chain: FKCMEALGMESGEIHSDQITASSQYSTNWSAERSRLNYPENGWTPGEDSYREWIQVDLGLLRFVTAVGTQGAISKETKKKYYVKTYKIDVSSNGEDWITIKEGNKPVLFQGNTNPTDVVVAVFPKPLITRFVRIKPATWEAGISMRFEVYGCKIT

T9: monomeric mutant NRP1 b1 E412H (human, UniProt O14786 273-427, limits assumed)
T9 construct: Single point mutant of the human NRP1 b1 domain
T9 chain: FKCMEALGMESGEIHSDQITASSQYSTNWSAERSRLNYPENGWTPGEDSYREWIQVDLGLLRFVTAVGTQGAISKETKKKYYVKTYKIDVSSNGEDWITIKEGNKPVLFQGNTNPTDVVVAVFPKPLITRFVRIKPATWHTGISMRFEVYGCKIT

T10: Cyno NRP-1 His (cynomolgus monkey, UniProt O14786 22-856 (human entry), limits assumed)
T10 construct: Recombinant monomeric protein; also called cynomolgus monkey NRP-1-His; cNRP-1; not shown: His tag
T10 chain: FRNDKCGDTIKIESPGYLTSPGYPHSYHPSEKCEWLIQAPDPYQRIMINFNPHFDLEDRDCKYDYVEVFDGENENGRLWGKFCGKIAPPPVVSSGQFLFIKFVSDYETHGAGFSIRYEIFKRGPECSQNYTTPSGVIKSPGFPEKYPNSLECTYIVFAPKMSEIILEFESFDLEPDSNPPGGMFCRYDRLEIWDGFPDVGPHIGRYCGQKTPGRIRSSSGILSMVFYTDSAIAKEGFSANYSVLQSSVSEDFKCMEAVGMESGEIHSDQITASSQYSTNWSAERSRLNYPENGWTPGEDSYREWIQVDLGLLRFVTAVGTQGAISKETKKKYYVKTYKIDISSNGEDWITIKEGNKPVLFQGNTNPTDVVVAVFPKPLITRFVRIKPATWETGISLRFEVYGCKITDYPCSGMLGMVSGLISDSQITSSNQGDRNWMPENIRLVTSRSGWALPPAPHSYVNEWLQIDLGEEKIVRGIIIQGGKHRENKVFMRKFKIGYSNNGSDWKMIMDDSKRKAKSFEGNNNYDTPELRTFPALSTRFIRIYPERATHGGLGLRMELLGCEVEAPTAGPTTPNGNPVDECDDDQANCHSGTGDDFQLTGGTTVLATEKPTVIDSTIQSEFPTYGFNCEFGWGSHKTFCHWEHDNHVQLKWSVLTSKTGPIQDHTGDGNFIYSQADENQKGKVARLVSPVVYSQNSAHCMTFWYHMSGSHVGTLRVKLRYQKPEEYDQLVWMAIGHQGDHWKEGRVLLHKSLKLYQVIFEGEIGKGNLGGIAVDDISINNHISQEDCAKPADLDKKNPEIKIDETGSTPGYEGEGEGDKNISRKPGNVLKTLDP

B1: SEC3 (antibody, human IgG1, kappa, V domains shown)
VH: EVQLVESGGGLVQPGGSLRLSCAASGFTISGYGIHWVRQAPGKGLEWVAYIYPDSGYTDYADSVKGRFTISADTSKNTAYLQMNSLRAEDTAVYYCAREDFRNRRRLWYVMDYWGQGTLVTVSS
VL: DIQMTQSPSSLSASVGDRVTITCRASQDVSTAVAWYQQKPGKAPKLLIYSASFLYSGVPSRFSGSGSGTDFTLTISSLQPEDFATYYCQQAWAYLPTFGQGTKVEIKR
notes: Appendix A gives 144 as light chain and 145 as heavy chain; also called pan-anti-NRP-1 antibody
B2: MAB12 (antibody, V domains shown)
VH: EVQLLESGGGLVQPGGSLRLSCAASGFTFSSVAMVWVRQAPGKGLEWVSAISGSGGATYYADSVEGRFTISRDNSKNTLYLQMNSLRAEDTAVYYCAKDPGYDSSRYYYSNYGMDVWGQGTTVTVSS
VL: DIQMTQSPSSLSASVGDRVTITCRASQSISSYLNWYQQKPGKAPKLLIYGASSLQSGVPSRFSGSGSGTDFTLTISSLQPEDFATYYCQQTYSLYTFGGGTKVEIK

Experiments:
[1] = molecular target: T11, Recombinant human NRP-1-Fc fusion protein, a1a2b1b2 domains (human, UniProt O14786 22-583, limits assumed); experiment: BLI Octet QKe, antibody on AHC sensor, NRP-1-Fc fragment 500 nM
T11 construct: Only the named domains of hNRP-1 are in the construct; not shown: Fc

[2] = molecular target: T12, Recombinant human NRP-1-Fc fusion protein, a1a2b1 domains (human, UniProt O14786 22-424, limits assumed); experiment: as above
T12 construct: Only the named domains of hNRP-1 are in the construct; not shown: Fc

[3] = molecular target: T1, monomeric mutant NRP1 b1 K351N; experiment: BLI Octet, MAB12 captured on anti-human Fc sensors, monomeric mutant NRP1 b1
[4] = molecular target: T2, monomeric mutant NRP1 b1 Y354A; experiment: as above
[5] = molecular target: T3, monomeric mutant NRP1 b1 D320A; experiment: as above
[6] = molecular target: T4, monomeric mutant NRP1 b1 P317A; experiment: as above
[7] = molecular target: T5, monomeric mutant NRP1 b1 K352G; experiment: as above
[8] = molecular target: T6, monomeric mutant NRP1 b1 T349A; experiment: as above
[9] = molecular target: T7, monomeric mutant NRP1 b1 Y353A; experiment: as above
[10] = molecular target: T8, monomeric mutant NRP1 b1 T413A; experiment: as above
[11] = molecular target: T9, monomeric mutant NRP1 b1 E412H; experiment: as above
Cyno NRP-1 His = molecular target: T10, Cyno NRP-1 His; experiment: BLI ForteBio, IgG1 N297A on AHQ sensor, 100 nM monomeric antigen, 1:1 fit
Mouse NRP-1 His = molecular target: T13, Mouse NRP-1 His (mouse, UniProt P97333 22-856); experiment: as above
T13 construct: Recombinant monomeric protein; also called mNRP-1; not shown: His tag

Human NRP-1 His = molecular target: T14, Human NRP-1 His (human, UniProt O14786 22-856); experiment: as above
T14 construct: Recombinant monomeric protein; Biotinylated in the MSD-SET assay; also called hNRP-1; not shown: His tag

recombinant human NRP-1 [12] = molecular target: T15, recombinant human NRP-1 (human, UniProt O14786 22-856, limits assumed); experiment: blocking ELISA: human NRP-1 coated, VEGFA added with IgG1 antibody; competitor VEGFA
T15 construct: also called biotinylated human NRP-1

recombinant human NRP-1 [13] = molecular target: T15, recombinant human NRP-1; experiment: blocking ELISA: SEMA3A coated, biotinylated human NRP-1 preincubated with IgG1 antibody; competitor SEMA3A

T15 sequence (O14786 22-856 V179A limits assumed): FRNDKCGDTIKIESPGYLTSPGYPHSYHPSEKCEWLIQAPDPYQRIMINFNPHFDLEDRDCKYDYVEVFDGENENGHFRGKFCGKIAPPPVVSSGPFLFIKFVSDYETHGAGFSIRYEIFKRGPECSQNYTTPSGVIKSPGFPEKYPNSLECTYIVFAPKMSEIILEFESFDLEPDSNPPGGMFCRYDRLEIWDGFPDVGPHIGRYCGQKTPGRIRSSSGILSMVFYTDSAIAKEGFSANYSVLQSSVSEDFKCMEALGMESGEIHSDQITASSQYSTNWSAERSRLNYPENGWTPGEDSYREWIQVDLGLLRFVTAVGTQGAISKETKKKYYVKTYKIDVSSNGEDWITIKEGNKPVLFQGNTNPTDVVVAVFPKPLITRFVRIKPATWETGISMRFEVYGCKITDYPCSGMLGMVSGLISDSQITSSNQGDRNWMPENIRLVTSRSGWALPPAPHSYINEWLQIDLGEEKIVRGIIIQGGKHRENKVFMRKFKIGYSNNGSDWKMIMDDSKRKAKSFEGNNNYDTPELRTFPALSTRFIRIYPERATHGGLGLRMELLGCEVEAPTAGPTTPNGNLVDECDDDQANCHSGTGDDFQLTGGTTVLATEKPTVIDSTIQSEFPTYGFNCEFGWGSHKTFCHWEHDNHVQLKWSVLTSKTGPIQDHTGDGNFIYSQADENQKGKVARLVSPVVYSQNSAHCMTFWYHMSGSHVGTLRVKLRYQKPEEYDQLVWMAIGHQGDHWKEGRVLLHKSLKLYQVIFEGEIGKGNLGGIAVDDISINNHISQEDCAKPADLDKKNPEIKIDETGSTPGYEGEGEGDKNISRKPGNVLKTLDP
T13 sequence (P97333 22-856 limits assumed): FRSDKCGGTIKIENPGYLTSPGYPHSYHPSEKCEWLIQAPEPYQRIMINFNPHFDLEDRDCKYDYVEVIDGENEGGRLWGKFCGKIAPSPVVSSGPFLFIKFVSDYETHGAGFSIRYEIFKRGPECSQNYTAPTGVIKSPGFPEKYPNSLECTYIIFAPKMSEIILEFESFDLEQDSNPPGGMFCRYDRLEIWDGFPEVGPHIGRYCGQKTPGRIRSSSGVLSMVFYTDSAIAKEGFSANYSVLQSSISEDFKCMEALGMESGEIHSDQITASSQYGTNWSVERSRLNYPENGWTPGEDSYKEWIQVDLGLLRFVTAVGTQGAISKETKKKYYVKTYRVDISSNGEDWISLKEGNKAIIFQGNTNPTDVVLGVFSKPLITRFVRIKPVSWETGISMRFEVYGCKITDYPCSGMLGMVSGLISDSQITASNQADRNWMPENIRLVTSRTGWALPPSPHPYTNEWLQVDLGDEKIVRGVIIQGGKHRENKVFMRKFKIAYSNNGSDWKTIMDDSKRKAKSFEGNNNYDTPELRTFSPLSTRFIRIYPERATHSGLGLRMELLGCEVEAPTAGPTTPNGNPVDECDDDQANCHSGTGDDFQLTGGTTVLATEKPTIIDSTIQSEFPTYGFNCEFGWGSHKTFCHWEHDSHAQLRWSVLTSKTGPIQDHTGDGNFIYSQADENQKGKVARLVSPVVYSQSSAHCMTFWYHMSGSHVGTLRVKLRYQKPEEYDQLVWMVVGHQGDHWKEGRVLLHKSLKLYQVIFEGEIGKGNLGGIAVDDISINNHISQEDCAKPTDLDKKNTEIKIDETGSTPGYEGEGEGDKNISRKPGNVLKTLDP
T14 sequence (O14786 22-856 V179A limits assumed): as the sequence (O14786 22-856 V179A limits assumed) above

Binder | binding result [1] | binding result [2] | binding result [3] | binding result [4] | binding result [5] | binding result [6] | binding result [7] | binding result [8] | binding result [9] | binding result [10] | binding result [11] | Kd (Cyno NRP-1 His) [nM] | Kd (Mouse NRP-1 His) [nM] | Kd (Human NRP-1 His) [nM] | IC50 (recombinant human NRP-1 [12]) [nM] | IC50 (recombinant human NRP-1 [13]) [nM]
B1 | binds | binds | – | – | – | – | – | – | – | – | – | – | – | – | – | –
B2 | – | – | no binding | binds | binds | binds | binds | binds | binds | binds | no binding | 0.469 | 0.44 | 0.481 | 6 | 0.8
